Reference: patent publication US20220144940A1 (VIELA BIO, published 2022)
“And” between values parts separate entries of the source, which are not always exact repeats. Equal values may be shown once. Blank lines part the entries; values can stand above or below the binder they belong to.

Legend:
[1] = target: T1, HA-tagged human ILT7 on CT-550 cells (human, UniProt P59901 24-499); assay: flow cytometry on human ILT7-expressing cells, left panel 'Human ILT7', table 'Ec50 (nM)'
T1 construct: whole, on cells; CT-550 cells: CT-125 cells (2B4 murine T-cell hybridoma with mouse FcεRIγ and NFAT-GFP reporter) transduced with HA-tagged human ILT7; also called human ILT7-expressing cells; not shown: HA tag
Protocol: (§1) Binding of anti-ILT7 variants and isotype controls on human and cynomolgus ILT7 was assessed by flow cytometry analysis using CT-550 and cynoILT7 CT-125 cells respectively. CT-125 cells were used as control. Cells were resuspended in Blocking Buffer (PBS supplemented with 10% FBS) at a concentration of 5 million cells per mL and transferred into a round-bottom 96-well plates (BD Falcon™ Clear Microtest Plate, BD Biosciences) at 100 μL per well. Anti-ILT7 variants and control antibodies were added onto the cells for 30 min at 4° C. on a plate shaker. Cells were washed three times with PBS and resuspended in Blocking Buffer (100 μL/well). Human IgG binding on cell surface was detected using a secondary anti-human IgG antibody conjugated to DyLight 649 (1 in 1000 dilution). Cells were incubated in the dark for 30 min at 4° C. on a plate shaker. Cells were washed three times with PBS and surface fluorescence was acquired using LSRII Flow Cytometry System and FACSDiva Software (both from BD Biosciences).

[2] = target: T1, HA-tagged human ILT7 on CT-550 cells; assay: flow cytometry on CT-550 cells
Protocol: as §1
(§2) In order to determine the binding EC50 of ILT70019, ILT70028, ILT70052, ILT70076, ILT70080, ILT70083, ILT70089, ILT70100, ILT70137, ILT70142 and ILT70144 on cells expressing human ILT7, the candidates were screened for binding on CT-550 cells by flow cytometry. ILT70080 (EC₅₀=0.28 nM), ILT70083 (EC₅₀=0.37 nM), ILT70137 (EC₅₀=0.41 nM), ILT70144, ILT70142, ILT70052, and ILT70100 bound to human ILT7-expressing cells. […] The anti-ILT7 antibodies 7C7 (7C7 is described above in Example 1) and SBI33 (SBI33 refers to the anti-ILT7 antibody ILT7#33 provided in U.S. Published Application No. 2009/0280128) were used as positive controls.

cynomolgus ILT7 [3] = target: T2, cynomolgus ILT7 (cynomolgus, UniProt P59901 24-499 (human entry)); assay: flow cytometry on CynoILT7 CT-125 cells
T2 construct: also called cyno ILT7; cynomolgus monkey ILT7
Protocol: as §1
(§3) In order to determine the binding EC₅₀ of the variants on cells expressing cynomolgus ILT7, the antibodies were screened for binding on CynoILT7 CT-125 cells by flow cytometry. […] The graph in FIG. 3 represents the mean results from two independent experiments, and the table in FIG. 3 show the average EC₅₀.

cynomolgus ILT7 [4] = target: T2, cynomolgus ILT7; assay: flow cytometry on cells expressing cynomolgus ILT7 (CT-125 cells)
Protocol: as §1
The resultant IgG1s were tested to confirm that the sequence changes incorporated into ILT70080 and ILT70083 and had not adversely impacted the binding of the parent antibody to cells expressing human ILT7 (CT-550 cells) or cynomolgus ILT7 (CT-125 cells). The variants were screened for binding by flow cytometry. […]

[5] = target: T1, HA-tagged human ILT7 on CT-550 cells; assay: cell-based or functional assay
cynomolgus ILT7 [6] = target: T2, cynomolgus ILT7; assay: cell-based or functional assay
cynomolgus ILT7 [7] = target: T2, cynomolgus ILT7; assay: flow cytometry on cynomolgus ILT7-expressing cells, right panel 'Cyno ILT7', table 'Ec50 (nM)'
Protocol: as §1

human ILT7 [8] = target: T3, human ILT7 (human, UniProt P59901 24-499); assay: FACS on CHO cells expressing recombinant human ILT7
T3 construct: whole, on cells; also called LIRA4; LILRA4

[9] = target: T4, recombinant human ILT7 protein (human, UniProt P59901 24-446, limits assumed); assay: SPR on ProteOn, purified IgG on rILT7
T4 construct: Soluble recombinant protein used in ProteOn and BIAcore SPR; also called rILT7; Soluble Recombinant Human ILT7

cynomolgus ILT7 [10] = target: T2, cynomolgus ILT7; assay: FACS on CHO cells expressing recombinant cyno ILT7
cynomolgus ILT7 [11] = target: T2, cynomolgus ILT7; assay: flow cytometry on CynoILT7 CT-125 cells expressing cynomolgus ILT7, anti-human IgG DyLight 649 detection; table 'Mean Ec50 (nM)', n = 2
Protocol: as §1, §3

[12] = target: T1, HA-tagged human ILT7 on CT-550 cells; assay: flow cytometry on CT-550 cells expressing human ILT7, anti-human IgG DyLight 649 detection; table 'Mean Ec50 (nM)', n = 2
Protocol: as §1, §2

human ILT7 [13] = target: T3, human ILT7; assay: FACS on CHO cells expressing recombinant human ILT7; reference antibody of the comparison
cynomolgus ILT7 [14] = target: T2, cynomolgus ILT7; assay: FACS on CHO cells expressing recombinant cyno ILT7; reference antibody of the comparison
human ILT7 [15] = target: T3, human ILT7; assay: FMAT cell binding assay, CHO-K1 cells expressing human ILT7, IgG
Description: (§4) This homogeneous assay assessed the binding of crude scFv supernatant samples or purified IgG to Chinese Hamster Ovary (CHO) cells expressing either human or cynomolgus ILT7 in a 384-well (Costar 3655) format. ScFv or Ab binding to cells was detected using a mouse anti-His/goat anti-mouse Alexafluor®-647 labelled antibody (Molecular Probes A21236) mix, or goat anti-human Alexafluor®-647 labelled antibody (Molecular Probes A21445) respectively. Plates were read on the Applied Biosystems Cellular Detection system 8200 reader. The Helium neon excitation laser was focused within 100 μm depth of the bottom of the well, scanning an area 1 mm². The cells settled at the bottom of the well, and upon laser excitation at 633 nm, those beads with fluorophore bound (where the local concentration of fluorophore is relatively high compared to unbound fluorophore) emitted a signal at 650-685 nm that was measured using photomultiplier tube-1 (PMT1). […] The presence of scFv or IgG samples binding to the cells at the bottom of the well caused an increase in Alexafluor-labeled detection antibody within the excitation depth. This was measured as an increase in fluorescence.
(§5) The cells used were CHO-Kl cells expressing either human or cynomolgus ILT7 that were cultured using standard tissue culture techniques. […]
(§6) Species cross-reactivity of anti-ILT7 antibodies was determined using FMAT binding assay. […]

cynomolgus ILT7 [16] = target: T2, cynomolgus ILT7; assay: FMAT cell binding assay, CHO-K1 cells expressing cynomolgus ILT7, IgG
Description: as §4, §5, §6

[17] = target: T1, HA-tagged human ILT7 on CT-550 cells; assay: flow cytometry on CT-550 cells expressing human ILT7, anti-human IgG DyLight 649 detection; mean of two experiments
Protocol: as §1
In order to determine the binding EC50 of ILT70019, ILT70028, ILT70052, ILT70076, ILT70080, ILT70083, ILT70089, ILT70100, ILT70137, ILT70142 and ILT70144 on cells expressing human ILT7, the candidates were screened for binding on CT-550 cells by flow cytometry. […]

T1 sequence (P59901 24-499): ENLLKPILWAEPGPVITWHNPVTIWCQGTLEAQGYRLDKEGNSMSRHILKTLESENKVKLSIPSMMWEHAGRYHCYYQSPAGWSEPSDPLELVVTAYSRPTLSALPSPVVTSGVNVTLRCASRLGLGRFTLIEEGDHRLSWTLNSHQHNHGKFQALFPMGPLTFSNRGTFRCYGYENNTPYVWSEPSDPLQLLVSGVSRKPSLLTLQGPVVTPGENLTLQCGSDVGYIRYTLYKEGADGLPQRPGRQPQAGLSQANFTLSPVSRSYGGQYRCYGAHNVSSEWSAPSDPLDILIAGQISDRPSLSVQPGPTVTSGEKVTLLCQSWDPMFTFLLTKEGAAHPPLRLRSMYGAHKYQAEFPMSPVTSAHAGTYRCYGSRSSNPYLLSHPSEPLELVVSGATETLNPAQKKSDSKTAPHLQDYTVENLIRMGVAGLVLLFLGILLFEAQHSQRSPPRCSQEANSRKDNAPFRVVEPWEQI
T3 sequence (P59901 24-499): as above
T2 sequence (P59901 other isoform, or with tags, fused parts or gaps limits assumed): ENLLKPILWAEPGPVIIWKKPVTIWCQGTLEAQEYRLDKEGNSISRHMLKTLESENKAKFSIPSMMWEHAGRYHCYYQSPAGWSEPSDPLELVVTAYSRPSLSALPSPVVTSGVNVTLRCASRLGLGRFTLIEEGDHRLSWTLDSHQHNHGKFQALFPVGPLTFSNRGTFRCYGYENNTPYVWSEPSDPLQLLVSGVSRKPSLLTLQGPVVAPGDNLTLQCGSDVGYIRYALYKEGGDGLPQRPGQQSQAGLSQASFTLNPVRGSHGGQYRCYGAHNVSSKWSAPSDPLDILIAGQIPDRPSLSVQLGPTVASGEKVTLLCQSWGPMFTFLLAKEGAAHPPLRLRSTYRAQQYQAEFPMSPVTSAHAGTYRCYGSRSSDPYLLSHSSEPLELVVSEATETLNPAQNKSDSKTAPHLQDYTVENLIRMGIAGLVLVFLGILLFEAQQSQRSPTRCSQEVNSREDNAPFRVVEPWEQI
T4 sequence (P59901 24-446 limits assumed): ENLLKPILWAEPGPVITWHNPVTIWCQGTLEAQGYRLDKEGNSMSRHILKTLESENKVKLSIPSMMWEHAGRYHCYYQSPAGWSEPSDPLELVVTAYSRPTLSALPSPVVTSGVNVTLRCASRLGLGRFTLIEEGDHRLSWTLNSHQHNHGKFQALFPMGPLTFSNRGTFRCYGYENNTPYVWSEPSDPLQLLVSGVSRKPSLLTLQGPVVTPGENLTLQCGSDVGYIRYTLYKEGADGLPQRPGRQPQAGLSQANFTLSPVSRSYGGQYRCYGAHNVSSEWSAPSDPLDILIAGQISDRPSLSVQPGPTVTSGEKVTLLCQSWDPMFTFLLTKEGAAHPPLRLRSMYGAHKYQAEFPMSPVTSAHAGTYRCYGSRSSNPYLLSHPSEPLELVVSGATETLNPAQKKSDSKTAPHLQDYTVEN

binding result (human ILT7 [13]): binds
binding result (cynomolgus ILT7 [14]): binds
B3: SBI28ch (antibody, V domains shown)
VH: QVQLQQSGAELVKPGASVKMSCKAFGYTFTTYPIEWMKQNHGKSLEWIGNFHPYNDDTKYNEKFKGKAKLTVEKSSSTVYLELSRLTSDDSAVYYCARGDDYGMDYWGQGTSVTVSS
VL: DIVMTQSQKFMSTSVGDRVSITCKASQNVRTAVAWYQQKPGQSPKALIYLASNRHTGVPDRFTGSGSGTDFTLTISNVQSEDLADYFCLQHWNYPFTFGSGTKLEIK
notes: also called chimeric SBI28; ILT7#28

binding result (human ILT7 [15]): binds
binding result (cynomolgus ILT7 [16]): binds
binding result [17]: binds
B4: ILT70089 (antibody, V domains shown)
VH: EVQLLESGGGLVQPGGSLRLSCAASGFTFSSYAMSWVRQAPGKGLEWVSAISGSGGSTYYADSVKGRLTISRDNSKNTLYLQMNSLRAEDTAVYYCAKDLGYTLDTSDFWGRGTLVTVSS
VL: SYVLTQPPSASGSPGQGVTISCSGSSSNIGTNTVNWYLHVPGTAPKLLTYTNNQRPSGVQDRFSGSKSDTSASLAISGLQAEDEGDYYCATWDDSLNGLAFGGGTKLTVL

The next lines start with the binder.

B1: ILT70080 (antibody, V domains shown)
VH: QVQLVQSGAEVKAPGTSVKVSCKASGDSFRNYAVSWVRQAPGQGLEWMGAMMPSFGTREHSQQFNGRVTLSADESTSTAYLELSSLRYDDTAVYYCAGSRDYNAYHFWTGPPDFWGRGTLVTVSS
VL: SYELTQPPSVSVAPGKTAKISCGGDSVGSTSVHWYQQKPGQAPVMVMFYNSDRPSGIPERFSGSISGNTATLTISRVEAGDEADYYCQVWDTSSDHPEFGGGTKLTVL
notes: also called ITL70080
EC50 [1]: 0.3 nM
EC50 [2]: 0.28 nM and 0.213 nM
EC50 (cynomolgus ILT7 [3]): 0.44 nM
EC50 (cynomolgus ILT7 [4]): 0.547 nM
ADCC EC50 [5]: 0.022 nM and 0.013 nM
ADCC EC50 (cynomolgus ILT7 [6]): 0.008 nM and 0.006 nM
EC50 (cynomolgus ILT7 [7]): 0.41 nM

B2: 7C7 (antibody, V domains shown)
VH: EVQLVESGGGVVQPGRSLRLSCAASGFTFSIYPIEWVRQAPGQGLEWIGNFHPYNDDTKYNEKFKGRVTMTTDTSTSTVYMELSSLRSEDTAVYYCTRGDDYGLDYWGQGTLVTVSS
VL: NIQMTQSPSSLSASVGDRVTITCDASQNVRTAVAWYQQKPGKAPKRLIYLASNRHTGVPSRFSGSGSGTDFTLTISSLQSEDFATYYCLQHWNYPFTFGPGTKLEIK
notes: also called anti-ILT7 clone 7C7
fold better EC50 than SBI28ch (human ILT7 [8]): 2.2 fold
fold KD improvement over SBI28ch [9]: ~60 fold
fold better EC50 than SBI28ch (cynomolgus ILT7 [10]): 14 fold
EC50 (cynomolgus ILT7 [11]): 8.34 nM
EC50 [12]: 1.3 nM
